# Publication doi:10.1101/2020.01.17.910273, “Ribosome association primes the stringent factor Rel for recruitment of deacylated tRNA to ribosomal A-site”
# Tests used:
# Assay in all cases: EMSA; EMSA: HEPES:Polymix buffer, 5 mM Mg2+, 0.1 uM tRNA or mRNA(MVF), with or without 1 uM mRNA(MVF) competitor, 5 min at 37 C; pH not in material
# Details in all cases: protein: recombinant; single strand
# [1] = molecular target: Rel TGS-Helical (Bacillus subtilis, UniProt O54408 374-583)
# [2] = molecular target: Rel NTD (Bacillus subtilis, UniProt O54408 1-373)
# [3] = molecular target: Rel (Bacillus subtilis, UniProt O54408 1-734)
# Sequence of Rel (O54408 whole entry): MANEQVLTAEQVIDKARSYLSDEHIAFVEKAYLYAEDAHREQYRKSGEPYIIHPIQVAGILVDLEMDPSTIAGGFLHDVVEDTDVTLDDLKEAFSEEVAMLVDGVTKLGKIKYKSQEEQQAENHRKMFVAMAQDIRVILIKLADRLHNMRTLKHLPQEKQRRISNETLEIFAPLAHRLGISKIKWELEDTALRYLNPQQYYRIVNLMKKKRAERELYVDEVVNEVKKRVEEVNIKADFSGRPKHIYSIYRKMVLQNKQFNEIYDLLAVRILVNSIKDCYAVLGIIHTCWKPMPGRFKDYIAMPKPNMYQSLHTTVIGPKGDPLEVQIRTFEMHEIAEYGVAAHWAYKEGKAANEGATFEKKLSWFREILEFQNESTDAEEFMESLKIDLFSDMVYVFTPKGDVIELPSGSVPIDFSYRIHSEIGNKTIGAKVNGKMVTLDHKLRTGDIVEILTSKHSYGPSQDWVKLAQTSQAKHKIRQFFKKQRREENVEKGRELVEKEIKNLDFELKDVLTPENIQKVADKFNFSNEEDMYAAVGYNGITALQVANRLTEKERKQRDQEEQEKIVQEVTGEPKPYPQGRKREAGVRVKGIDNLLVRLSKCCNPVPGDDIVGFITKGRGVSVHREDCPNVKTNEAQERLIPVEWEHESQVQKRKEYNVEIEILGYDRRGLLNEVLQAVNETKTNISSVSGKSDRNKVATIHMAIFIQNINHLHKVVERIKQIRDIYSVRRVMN
# Sequence of Rel TGS-Helical (O54408 374-583): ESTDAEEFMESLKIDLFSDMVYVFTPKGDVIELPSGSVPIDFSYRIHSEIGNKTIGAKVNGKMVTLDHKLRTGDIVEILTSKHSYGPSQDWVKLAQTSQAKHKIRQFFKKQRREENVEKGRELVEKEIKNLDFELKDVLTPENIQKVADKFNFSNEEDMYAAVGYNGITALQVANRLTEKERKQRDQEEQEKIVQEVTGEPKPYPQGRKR
# Sequence of Rel NTD (O54408 1-373): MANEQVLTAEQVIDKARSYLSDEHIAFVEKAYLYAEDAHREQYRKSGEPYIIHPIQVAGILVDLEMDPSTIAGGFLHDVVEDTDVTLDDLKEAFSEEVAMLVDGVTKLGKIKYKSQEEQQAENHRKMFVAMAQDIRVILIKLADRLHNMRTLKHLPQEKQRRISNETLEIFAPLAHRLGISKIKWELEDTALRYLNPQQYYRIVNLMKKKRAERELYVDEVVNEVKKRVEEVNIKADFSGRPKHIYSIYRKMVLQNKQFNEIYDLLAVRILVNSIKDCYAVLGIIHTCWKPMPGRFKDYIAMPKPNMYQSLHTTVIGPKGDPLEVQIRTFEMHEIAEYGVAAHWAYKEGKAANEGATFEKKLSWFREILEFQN
binder,measurement,setting,value
GGCAAGGAGGAGAUAAGAAUGGUUUUCUAAUA (ssRNA) [mRNA(MVF)],binding result,[1],no binding
same,apparent K (half saturation),[2],680 ± 30 nM
same,apparent K (half saturation),[3],490 ± 10 nM
